Experimental findings from paper PMC8420576 (The EMBO Journal, 2021) are described below.

This experiment addresses T1, SARS-CoV-2 Spike RBD (residues 334–527), C-terminal Avi-His6 tag, biotinylated (SARS-CoV-2, reference (Wuhan-Hu-1) …, UniProt P0DTC2, biotin on the Avi-tag).
T1 construct: also called biotinylated RBD; SARS‐CoV‐2 RBD‐loaded sensors
As to the kind of experiment: BLI. As to conditions: both partners purified.

B1: VHH antibody Re9F06 (VHH)
VHH: QVQLVESGGGLVQAGGSLRLSCAASGRTFSNDALGWFRQAPRKEREFVAAINWNSGTYYADSVKGRFTISRDNAKNTVYLQMNSLKPEDTAVYSCAAASDYGLPREDFLYDYWGQGTQVTVSS
notes: also called fold-promoter Re9F06; fold-promoting nanobody Re9F06
With B1, the Kd (usually the constant that tells how readily two partners part at equilibrium) was determined as 4 nM.
